Values quoted from earlier work as cited in patent US12628856B2, “Nutritional composition having lipophilic compounds with improved solubility and bioavailability” (Abbott Laboratories, priority 2013, dated 2026).
Blank lines part the entries; values can stand above or below the molecule they belong to.

Settings: Kd Source: Published; read-out: Lutein Kd

Kd: 450 nM
B1: StARD3: reference protein with published lutein Kd (protein, UniProt Q14849 1-445, looked up)
StAR-related lipid transfer …: MSKLPRELTRDLERSLPAVASLGSSLSHSQSLSSHLLPPPEKRRAISDVRRTFCLFVTFDLLFISLLWIIELNTNTGIRKNLEQEIIQYNFKTSFFDIFVLAFFRFSGLLLGYAVLRLRHWWVIAVTTLVSSAFLIVKVILSELLSKGAFGYLLPIVSFVLAWLETWFLDFKVLPQEAEEERWYLAAQVAVARGPLLFSGALSEGQFYSPPESFAGSDNESDEEVAGKKSFSAQEREYIRQGKEATAVVDQILAQEENWKFEKNNEYGDTVYTIEVPFHGKTFILKTFLPCPAELVYQEVILQPERMVLWNKTVTACQILQRVEDNTLISYDVSAGAAGGVVSPRDFVNVRRIERRRDRYLSSGIATSHSAKPPTHKYVRGENGPGGFIVLKSASNPRVCTFVWILNTDLKGRLPRYLIHQSLAATMFEFAFHLRQRISELGARA

Kd: 1350 nM
B2: GSTP1: reference protein with published lutein Kd (protein, UniProt P09211 2-210, looked up)
Glutathione S-transferase P: PPYTVVYFPVRGRCAALRMLLADQGQSWKEEVVTVETWQEGSLKASCLYGQLPKFQDGDLTLYQSNTILRHLGRTLGLYGKDQQEAALVDMVNDGVEDLRCKYISLIYTNYEAGKDDYVKALPGQLKPFETLLSQNQGGKTFIVGDQISFADYNLLDLLLIHEVLAPGCLDAFPLLSAYVGRLSARPKLKAFLASPEYVNLPINGNGKQ
